In patent publication US20260085127A1 (BRIGHTPATH BIOTHERAPEUTICS, published 2026):
Where a chain is given by its changes, count along the chain named. Names and notes keep the numbering of the source. Where two headings read alike, the source gives them in different places. One block for each binder: values may come before it.

Assays:
[1] = target: T1, human CD39 (Accession No. NM_001776.6) expressed on cells (human, UniProt P49961 1-510); assay: flow cytometry, 293T/CD39 cells, KD from MFI
T1 construct: whole, on cells; On Jurkat, 293T or SK-MEL28 cells; also called Jurkat/CD39; 293T/CD39
T1 sequence (looked up): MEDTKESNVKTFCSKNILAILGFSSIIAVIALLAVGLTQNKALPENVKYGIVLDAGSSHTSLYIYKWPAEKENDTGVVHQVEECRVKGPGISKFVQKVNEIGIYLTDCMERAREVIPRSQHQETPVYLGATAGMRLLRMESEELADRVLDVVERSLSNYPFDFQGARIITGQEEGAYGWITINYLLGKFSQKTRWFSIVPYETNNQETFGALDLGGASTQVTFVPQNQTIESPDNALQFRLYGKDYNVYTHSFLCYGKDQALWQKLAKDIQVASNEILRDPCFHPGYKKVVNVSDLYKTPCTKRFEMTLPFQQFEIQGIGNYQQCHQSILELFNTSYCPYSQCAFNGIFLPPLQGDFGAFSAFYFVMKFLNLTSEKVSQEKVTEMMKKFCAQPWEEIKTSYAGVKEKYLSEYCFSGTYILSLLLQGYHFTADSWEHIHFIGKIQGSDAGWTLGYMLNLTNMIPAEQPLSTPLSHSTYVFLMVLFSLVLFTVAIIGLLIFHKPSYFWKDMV

[2] = target: T1, human CD39 (Accession No. NM_001776.6) …; assay: flow cytometry, 293T/TIM-3 + CD39 cells, KD from MFI
[3] = target: T1, human CD39 (Accession No. NM_001776.6) …; assay: flow cytometry, Jurkat/CD39 cells, KD from MFI
[4] = target: T2, recombinant human CD39 (in-house product, 38 to 478 aa of Accession No. NM_001776.6) (human, UniProt P49961 38-478); assay: SPR Biacore8K, antibody captured on anti-human IgG, antigen as analyte
T2 construct: also called rhCD39; human CD39-ECD; not shown: Myc and His tags at the C-terminus are named only for the PE-lab
T2 sequence (looked up): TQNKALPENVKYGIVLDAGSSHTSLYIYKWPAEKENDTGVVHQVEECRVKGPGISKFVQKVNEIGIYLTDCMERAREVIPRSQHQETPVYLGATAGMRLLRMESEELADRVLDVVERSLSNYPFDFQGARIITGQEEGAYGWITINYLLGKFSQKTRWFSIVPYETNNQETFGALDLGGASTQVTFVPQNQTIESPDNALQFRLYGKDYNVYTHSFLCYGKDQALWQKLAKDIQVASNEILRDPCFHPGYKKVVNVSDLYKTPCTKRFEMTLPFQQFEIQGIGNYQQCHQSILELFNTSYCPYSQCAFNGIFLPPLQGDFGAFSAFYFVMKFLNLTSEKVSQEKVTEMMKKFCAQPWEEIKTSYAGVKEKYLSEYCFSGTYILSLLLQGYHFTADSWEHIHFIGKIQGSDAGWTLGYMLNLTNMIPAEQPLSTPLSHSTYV

[5] = target: T1, human CD39 (Accession No. NM_001776.6) …; assay: flow cytometry, Jurkat/TIM-3 + CD39 cells, KD from MFI
[6] = target: T3, human TIM-3 (Accession No. JX049979.1) stably expressed on cells (human, UniProt Q8TDQ0 22-301); assay: as above
T3 construct: whole, on cells; On Jurkat or 293T cells; also called Jurkat/TIM-3; 293T/TIM-3

[7] = target: T3, human TIM-3 (Accession No. JX049979.1) …; assay: flow cytometry, Jurkat/TIM-3 cells, KD from MFI
[8] = target: T1, human CD39 (Accession No. NM_001776.6) …; assay: flow cytometry on a mix of Jurkat, Jurkat/TIM-3, Jurkat/CD39 and Jurkat/TIM-3+CD39 cells in one well, antibody at 0.1 nM, BV421-anti-hIgG, MFI of BV421 per cell group
[9] = target: T4, biotinylated human TIM-3-Fc antigen (in-house product, SEQ ID No: 118) (human, biotinylated); assay: competition ELISA: human Galectin-9 coated, biotinylated human TIM-3-Fc pre-mixed with the antibody dilution series, Streptavidin-HRP, A450; blocked ligand: human Galectin-9
[10] = target: T4, biotinylated human TIM-3-Fc antigen …; assay: flow cytometry, inhibition of biotinylated TIM-3-Fc binding to phosphatidylserine on apoptotic Jurkat cells
[11] = target: T1, human CD39 (Accession No. NM_001776.6) …; assay: flow cytometry, 293T/CD39 cells, KD from MFI; remark: listed apart in the source
[12] = target: T3, human TIM-3 (Accession No. JX049979.1) …; assay: flow cytometry, 293T/TIM-3 cells, KD from MFI
[13] = target: T2, recombinant human CD39 (in-house …); assay: SPR Biacore8K, antibody captured on anti-human IgG, antigen as analyte; remark: listed apart in the source
[14] = target: T4, biotinylated human TIM-3-Fc antigen …; assay: flow cytometry, inhibition of biotinylated TIM-3-Fc binding to phosphatidylserine on apoptotic Jurkat cells; remark: listed apart in the source
[15] = target: T4, biotinylated human TIM-3-Fc antigen …; assay: competition ELISA: human Galectin-9 coated, biotinylated human TIM-3-Fc pre-mixed with the antibody dilution series, Streptavidin-HRP, A450; blocked ligand: human Galectin-9; remark: listed apart in the source

Kd [1]: 18.6 nM
Kd [2]: 26.6 nM
Kd [3]: 42.1 nM
Kd [4]: 0.465 nM
koff [4]: 0.000187 s⁻¹
kon [4]: 402000 M⁻¹ s⁻¹
Kd [5]: 33.6 nM
B1: 6-3hIG_sc (antibody)
scFv: QVQLVQSGAELVKPGASVKLSCKASGFSIKDTYVHWVKQAPGKGLEWIGKIDPANVNTKFDPKFQGRVTITADTSTNTAYLQLSSLRSEDTAVYYCALYGYDDDAYYFDYWGQGTLVTVSSGGGGSGGGGSGGGGSGGGGSEIVLTQSPASLSVSPGERATISCRASESVDNYGISFMNWFQQKPGQAPKLLIYAASNQGSGVPARFSGSGSGTDFTLTISSLEPEDFAVYYCQQSKEVPYTFGQGTKLEIK
notes: scFv-Fc homodimer, anti-CD39; also called scFv-Fc homodimeric antibody of anti-CD39_scFv antibody (humanized) 6-3hIG; not shown: GGGG linker and Fc-LALA (human IgG1 Fc with L234A and L235A)

Kd [6]: 31.2 nM
Kd [7]: 26.8 nM
binding result [8]: no binding (tested: 0.1 nM)
B2: Hu072_11_sc (antibody)
scFv: QVQLQESGGGLVKPGGSLKLSCAASGFTFSSYYMSWVRQTPDKRLEWVATISNSGGSTYYPDSVKDRFTISRDNAKNTLYLQMSSLKSEDTAMYYCARDPYYTNYVPMDYWGQGTMVTVSSGGGGSGGGGSGGGGSGGGGSDIVMTQSPDSLAVSLGERVTLSCKASENVGTYVSWYQQKPRQPPKLLIYGASNRYTGVPDRFSGSGSGTDFTLTISSLQAEDVALYYCGQSYSYPLTFGQGTRLEIK
notes: scFv-Fc homodimer, anti-TIM-3; also called scFv-Fc homodimeric antibody of anti-TIM-3_ScFv antibody Hu072_11; not shown: GGGG linker and Fc-LALA (IgG1 Fc with L234A and L235A)

IC50 (read off the curve) [9]: ~3 nM
IC50 [10]: 30.7 nM
B3: HuP4_11_Hu003_Ct (bispecific antibody)
chain 1: EVQLVESGGALVQPGRSLRLSCAVSGFTLSNYGVHWVRQAPGKGLEWVAVILRRGSTDYNAAFMSRFTISKDNSKNTVYLQMNSLRADDTAVVAGDYFDYWGQGTTVTVSSGGGGSGGGGSGGGGSGGGGSDIVMTQSQKFMSTSVGDRVSITCKASQNVGTNVAWYQQKPGQSPKLLIYSASYRYSGVPDRFTGSGSGTDFTLTISNMQSEDLADYFCQQYNSYPLTFGGGTKLEIK
chain 2: QVQLQESGGGLVKPGGSLKLSCAASGFTFSSYYMSWVRQTPDKRLEWVATISNSGGSTYYPDSVKDRFTISRDNAKNTLYLQMSSLKSEDTAMYYCARDPYYTNYVPMDYWGQGTMVTVSSGGGGSGGGGSGGGGSGGGGSDIVMTQSPSFLSASVGDRVTITCKASQYVDTYVAWYQQRPGKAPKPLIYSASTRHTGVPSRFSGSGSGTEFTLTISSLQPEDFATYFCAQYSSSPLTFGGGTKLELK

IC50 (read off the curve) [9]: ~3 nM
Kd [11]: 11.4 nM
IC50 [10]: 16.5 nM
Kd [4]: 0.334 nM
Kd [12]: 8.66 nM
B4: HuP4_IB_Hu003 (bispecific antibody)
chain 1: QVQLLESGPELVKPSATLSITCTVSGFSLTNYGVHWIRQAPGKGLEWLGVILRRGSTDYNAAFMSRFTISKDNSKNQVYFKLRSVTAEDTAVVAGDYFDYWGQGTMVTVSSGGGGSGGGGSGGGGSGGGGSDIQMTQSHSTLSLSVGDRVTITCKASQNVGTNVAWYQQKPGQPPKALIYSASYRYSGVPSRFSGSGSGTDFTLTISSVQAEDVAVYYCQQYNSYPLTFGPGTKLEIK
chain 2: B3 chain 2

Kd [13]: 2.4 nM
Kd [11]: 9.19 nM
IC50 [14]: 23.9 nM
B5: T86_Hu003_Fsc (bispecific antibody, not shown: a dimerising Fc or GST)
VH: QIQLVQSGPELKKPGETVKISCEASGYTFINYGMNWVKQAPGKGLKWMGWINTYTGEPTYADDFKGRFAFSLETSANTAYLQINNLKNEDTATYFCARKGYYGYPNYYAMDYWGQGTSVTVSS
VL: DIVMTQSQKFMSTSVGDRVSITCKASQNVGTAVAWYQQKPGQSPKLLIYSASNRYTGVPDRFTGSGSGTDFTLTISNMQSEDLADYFCQQYSSYPITFGTGTKLEIK
scFv: B3 chain 2
notes: Fab-scFv-Fc heterodimer: anti-CD39 Fab T86 (Knob)

IC50 [14]: 25.2 nM
Kd [12]: 4.78 nM
B6: I67_Hu003_Fsc (bispecific antibody, not shown: a dimerising Fc or GST)
VH: DVQLQESGPSLVQPSQSLSINCTVSGFSLSSYGVHWVRQSPGKGLEWLGVIWRRGSTDYNAAFMSRLSITKDNSKSQVFFKMNRLQADDTATYYCAKGISTATSWFAYWGQGTLVTVSA
VL: DIVMTQSHKFMSTSVGDRVSVTCKASQNVGTNVAWYQQKPGQSPKALIYSASYRYSGVPDRFTGSGSGTDFTLTISNVQSEDLAEYFCQQYNSYPLTFGAGTKLELK
scFv: B3 chain 2
notes: Fab-scFv-Fc heterodimer: anti-CD39 Fab I67 (Knob)

Kd [13]: 0.21 nM
Kd [11]: 17.6 nM
IC50 [14]: 15.5 nM
IC50 (read off the curve) [15]: ~2 nM
B7: 6-3hIG_Hu003_Fsc (bispecific antibody, not shown: a dimerising Fc or GST)
VH: QVQLVQSGAELVKPGASVKLSCKASGFSIKDTYVHWVKQAPGKGLEWIGKIDPANVNTKFDPKFQGRVTITADTSTNTAYLQLSSLRSEDTAVYYCALYGYDDDAYYFDYWGQGTLVTVSS
VL: EIVLTQSPASLSVSPGERATISCRASESVDNYGISFMNWFQQKPGQAPKLLIYAASNQGSGVPARFSGSGSGTDFTLTISSLEPEDFAVYYCQQSKEVPYTFGQGTKLEIK
scFv: B3 chain 2

Kd [13]: 2.7 nM
Kd [11]: 3.94 nM
IC50 [14]: 19.8 nM
B8: mAnE67_Hu003_Fsc (bispecific antibody, not shown: a dimerising Fc or GST)
VH: EVQLVESGGGLVKPGGSRKLSCAASGFTFSDYGMHWVRQAPEKGLEWVAYISSGSSIIYYADTVKGRFTISRDNAKNTLFLQMTGLRSEDTAMYYCARKDYPYAMDYWGQGTSLAVSS
VL: SIVMTQTPKFMSTSVGDRVSVTCKASQNVGTNVAWYQQKPGQSPKALIYWASNRFTGVPDRFTGSGSGTDFTLTISNVQSEDLADYFCQQYSSSPYTFGSGTKLEIK
scFv: B3 chain 2
notes: Fab-scFv-Fc heterodimer: anti-CD39 mAnE67 arm (Knob)

Kd [13]: 1.36 nM
Kd [11]: 25.4 nM
IC50 [14]: 22.4 nM
B9: Tre291_Hu003_Fsc (bispecific antibody, not shown: a dimerising Fc or GST)
VH: QVQLKQSGPGLVQPSQSLSITCTVSGFSLTSYGVHWVRQSPGKGLEWLGVIWRRGSTDYNAAFMSRLSITKDTSKSQVFFKMNSLQTDDTAIYYCAGVRGDAMDYWGQGTSVTVSS
VL: B6 VL with F10S, A100G, L106I
scFv: B3 chain 2
notes: Fab-scFv-Fc heterodimer: anti-CD39 Fab Tre291 (Knob)
